Data reported in US20240218035.

Molecular target: inactive hepatocyte growth factor (pro-HGF), single-stranded form, in CHO culture supernatant
Sequence (chain, as listed by the source): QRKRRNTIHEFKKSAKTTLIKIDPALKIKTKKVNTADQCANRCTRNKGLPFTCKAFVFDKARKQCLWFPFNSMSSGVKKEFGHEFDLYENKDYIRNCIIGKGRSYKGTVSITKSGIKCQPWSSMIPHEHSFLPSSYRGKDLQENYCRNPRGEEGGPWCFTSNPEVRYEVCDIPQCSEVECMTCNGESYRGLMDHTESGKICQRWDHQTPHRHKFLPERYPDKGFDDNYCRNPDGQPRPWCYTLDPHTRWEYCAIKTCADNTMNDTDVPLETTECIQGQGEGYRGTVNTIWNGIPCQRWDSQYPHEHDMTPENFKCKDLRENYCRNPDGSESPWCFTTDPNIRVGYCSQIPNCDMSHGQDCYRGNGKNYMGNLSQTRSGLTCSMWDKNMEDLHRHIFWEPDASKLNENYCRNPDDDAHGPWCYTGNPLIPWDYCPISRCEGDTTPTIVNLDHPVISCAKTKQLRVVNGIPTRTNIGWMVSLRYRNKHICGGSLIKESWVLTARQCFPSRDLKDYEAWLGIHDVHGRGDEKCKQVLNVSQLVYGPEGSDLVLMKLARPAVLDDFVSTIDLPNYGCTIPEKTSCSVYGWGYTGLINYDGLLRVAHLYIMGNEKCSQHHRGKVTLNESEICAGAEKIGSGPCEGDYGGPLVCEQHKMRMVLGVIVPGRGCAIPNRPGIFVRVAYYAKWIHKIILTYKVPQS

B1: active hepatocyte growth factor activator (active HGFA), as activated HGFA culture supernatant from CHO cells (protein)
chain: VQLSPDLLATLPEPASPGRQACGRRHKKRTFLRPRIIGGSSSLPGSHPWLAAIYIGDSFCAGSLVHTCWVVSAAHCFSHSPPRDSVSVVLGQHFFNRTTDVTQTFGIEKYIPYTLYSVFNPSDHDLVLIRLKKKGDRCATRSQFVQPICLPEPGSTFPAGHKCQIAGWGHLDENVSGYSSSLREALVPLVADHKCSSPEVYGADISPNMLCAGYFDCKSDACQGDSGGPLACEKNGVAYLYGIISWGDGCGRLHKPGVYTRVANYVDWINDRIRPPRRLVAPS
B1 was tested, and the “activation state of pro-HGF confirmed with SDS-PAGE (conversion of the single strand into α and β chains) after about 20 hours of reaction at 25° C.” value was “under a reductive condition after activation the single strand substance had disappeared and separated into α and β chains, and thus sufficient activation of pro-HGF was confirmed”.
